Data on 4 molecules can be found in publication PMC8809517, “Cofactor-independent RNA editing by a synthetic S-type PPR protein”.

Assay in all cases: high-throughput RNA pulldown from lysate on Ni-NTA beads; HRP: 50 mM Tris pH 8, 150 mM NaCl, 1 mM beta-mercaptoethanol, 50 ug/ml BSA, 3 ug/ml yeast RNA, 0.5% heparin; ITC and FP: Tris pH 8, 200 mM KCl, 5% glycerol; MST: 50 mM Tris pH 8, 200 mM NaCl, 1 mM DTT, BSA, heparin, 0.05% Tween 20
Conditions in all cases: tags: N-terminal His-eGFP

The target in data set [1] is T1, GFP-9S library array, motif 4 ND N98G;D124T (synthetic construct, N98G;D124T).
T1 chain: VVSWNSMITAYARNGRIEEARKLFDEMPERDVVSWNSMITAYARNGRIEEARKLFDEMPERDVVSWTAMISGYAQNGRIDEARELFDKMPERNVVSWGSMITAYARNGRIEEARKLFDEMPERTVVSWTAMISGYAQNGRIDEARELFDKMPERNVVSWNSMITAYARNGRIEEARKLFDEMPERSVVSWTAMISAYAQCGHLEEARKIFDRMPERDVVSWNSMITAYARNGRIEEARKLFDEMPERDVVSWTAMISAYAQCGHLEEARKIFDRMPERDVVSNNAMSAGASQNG

The target in data set [2] is T2, GFP-9S library array, motif 4 ND N98G;D124F (synthetic construct, N98G;D124F).
T2 chain: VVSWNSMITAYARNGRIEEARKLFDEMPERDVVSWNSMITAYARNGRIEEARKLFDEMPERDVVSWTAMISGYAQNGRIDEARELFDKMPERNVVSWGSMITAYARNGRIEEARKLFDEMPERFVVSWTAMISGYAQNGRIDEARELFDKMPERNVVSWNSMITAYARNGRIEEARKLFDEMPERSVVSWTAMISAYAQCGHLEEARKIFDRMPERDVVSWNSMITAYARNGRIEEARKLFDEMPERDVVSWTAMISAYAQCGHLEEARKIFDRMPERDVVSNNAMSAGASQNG

The target of data set [3] is T3, GFP-9S library array, motif 4 ND N98T;D124C (synthetic construct, N98T;D124C).
T3 chain: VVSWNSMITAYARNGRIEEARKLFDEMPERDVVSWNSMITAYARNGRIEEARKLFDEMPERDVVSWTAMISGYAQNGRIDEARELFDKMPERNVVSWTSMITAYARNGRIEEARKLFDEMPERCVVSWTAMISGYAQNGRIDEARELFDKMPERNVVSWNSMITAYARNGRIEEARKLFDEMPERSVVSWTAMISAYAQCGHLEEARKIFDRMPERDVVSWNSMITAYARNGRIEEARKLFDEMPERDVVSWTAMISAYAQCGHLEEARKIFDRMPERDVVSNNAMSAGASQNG

Data set [4] addresses T4, GFP-9S library array, motif 4 ND N98V;D124M (synthetic construct, N98V;D124M).
T4 chain: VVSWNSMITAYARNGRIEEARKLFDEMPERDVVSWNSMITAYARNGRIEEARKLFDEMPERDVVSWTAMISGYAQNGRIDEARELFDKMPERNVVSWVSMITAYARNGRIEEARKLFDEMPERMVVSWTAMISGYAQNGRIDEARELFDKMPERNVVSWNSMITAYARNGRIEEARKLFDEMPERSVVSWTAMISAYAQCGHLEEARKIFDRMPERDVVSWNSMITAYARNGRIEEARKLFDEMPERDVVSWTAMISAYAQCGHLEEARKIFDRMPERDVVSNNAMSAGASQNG

Data set [5] addresses T5, GFP-9S library array, motif 4 ND N98D;D124P (synthetic construct, N98D;D124P).
T5 chain: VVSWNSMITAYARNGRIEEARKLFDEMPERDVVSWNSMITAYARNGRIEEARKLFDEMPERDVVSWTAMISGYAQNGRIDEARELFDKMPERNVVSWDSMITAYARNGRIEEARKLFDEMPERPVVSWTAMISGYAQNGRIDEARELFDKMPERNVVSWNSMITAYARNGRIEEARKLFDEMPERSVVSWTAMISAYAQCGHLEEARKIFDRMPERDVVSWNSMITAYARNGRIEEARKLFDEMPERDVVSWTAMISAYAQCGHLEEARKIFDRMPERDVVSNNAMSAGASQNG

Broadly, the Kd is the free concentration of one partner at which half of the binding sites on the other are occupied at equilibrium, for simple one-to-one binding. Turning to AUUAGACGUGA (ssRNA) [Cy5-rpoA-G], the Kd in data set [1] (label: 5' Cy5) amounted to 436 nM; in data set [2] (label: 5' Cy5) it was 95.6 nM; in data set [3] (label: 5' Cy5), 8.1 nM; in data set [4] (label: 5' Cy5) it was 155 nM; in data set [5] (label: 5' Cy5), 157 nM.

AUUAUACGUGA (ssRNA) [IR-rpoA-U]: the equilibrium dissociation constant (Kd) in data set [1] (label: 5' IRDye 800CW) came out at 236 nM; in data set [2] (label: 5' IRDye 800CW) it was 119 nM; in data set [3] (label: 5' IRDye 800CW), 119 nM; in data set [4] (label: 5' IRDye 800CW), 294 nM; in data set [5] (label: 5' IRDye 800CW), 501 nM.

Consider AUUAAACGUGA (ssRNA) [IR-rpoA-A], for which the Kd is 108 nM in data set [1] (label: 5' IRDye 800CW); 218 nM in data set [2] (label: 5' IRDye 800CW); 88.6 nM in data set [3] (label: 5' IRDye 800CW); 431 nM in data set [4] (label: 5' IRDye 800CW); 341 nM in data set [5] (label: 5' IRDye 800CW).

With AUUACACGUGA (ssRNA) [Cy5-rpoA], the Kd in data set [1] (label: 5' Cy5) was 169 nM; in data set [2] (label: 5' Cy5), 69.1 nM; in data set [3] (label: 5' Cy5), 330 nM; in data set [4] (label: 5' Cy5), 148 nM; in data set [5] (label: 5' Cy5) it was 202 nM.
